For one series, the system named is R1 ES cells. As to the kind of experiment: Apoptosis rate (counting apoptotic bodies). The series is classed as cell-based, mouse. As to conditions: over 72 hours post-stimulation with RA. The procedure: R1 ES cells (1×10^5) were plated into 6-cm dishes on irradiated MEFs and stimulated with RA differentiation medium for up to 72 hours. Cells were fixed with 4% paraformaldehyde (EMS, cat. no. 15710), stained with DAPI and mounted with Vectashield (Vector Lab, cat. no. H1200). The number of apoptotic figures was determined in triplicate per 100 cells. As a positive control, ES cells were incubated with staurosporine (Sigma, cat. no. 55921, 1 μM) for 4 hours.

The target in the next series is T1, caspase-3 (Homo sapiens, UniProt P42574).
T1 construct: purchased BD Bioscience 556471
T1 sequence (P42574 29-175 limits assumed): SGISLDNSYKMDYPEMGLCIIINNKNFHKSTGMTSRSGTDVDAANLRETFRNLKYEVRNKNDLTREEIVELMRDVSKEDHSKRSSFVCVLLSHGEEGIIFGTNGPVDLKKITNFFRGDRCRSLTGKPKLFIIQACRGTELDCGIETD
T1 sequence (P42574 176-277 limits assumed): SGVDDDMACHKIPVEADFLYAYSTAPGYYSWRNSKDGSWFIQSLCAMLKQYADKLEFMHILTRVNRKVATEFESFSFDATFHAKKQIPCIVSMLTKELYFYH
As to the kind of experiment: caspase-3 activity assay (CaspGlo) with Nanog cleavage site peptides. The series is classed as biochemical. As to conditions: FIG. 10B. As for the experimental part:
Trypsinized ES cells (R1; 200,000; D3 250,000) were plated into 6 wells containing normal ES cell medium, and on the next day the medium was changed to 1 μM RA differentiation medium. Cells were harvested with trypsin-EDTA (Invitrogen, cat. no. 25300-054), and protein extracts were made in 0.1% CHAPS buffer, pH 7.2 (50 mM Hepes; 150 mM KCl; 1× protease inhibitors (Roche, cat. no. 1697498001); 2 mM Na fluoride and orthovanadate, respectively, at specified time points. The CaspGlo (Promega, cat. no. G8091) kit was used to directly measure caspase activity. Before determining caspase activity, we tested the system for variability within the dynamic range, using recombinant caspase-3 (BD Bioscience, cat. no. 556471). The signal was measured with the Wallac 1429 Victorll instrument (Perkin-Elmer, Wellesley, Mass.).

Entries after “also recorded” stand apart in the source; their conditions may differ.

Take `CC1=C(/C=C/C(C)=C/C=C/C(C)=C/C(=O)O)C(C)(C)CCC1` [RA, retinoic acid]: the “percentage of cells undergoing apoptosis” value in the series with R1 ES cells is recorded as “essentially no increases”.
For the molecule “DSPD: hNanog caspase cleavage site peptide”, the “inhibition / targeting of caspase-3 by cleavage site peptide” value with caspase-3 was “effectively inhibit caspase-3”.
In the case of “GSPD: mNanog caspase cleavage site peptide”, the “inhibition / targeting of caspase-3 by cleavage site peptide” value with caspase-3 was “effectively inhibit caspase-3; also recorded: still targeted by caspase-3”.
